Data reported in the supplement of paper PMC9170038.

What was measured:
MS2 coat protein [1] = assay: apparent KD of MS2 coat protein; higher = weaker reporter binding; conditions: Eterna round: R101
Experimental: (§1)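 RNA-MaP: designed FMN/MS2 RNA switches (84 nt design region) are transcribed on-chip within common flanks and titrated with SNAP-549-labelled MS2 coat protein (about 1-3000 nM) in 100 mM Tris pH 7.5, 80 mM KCl, 4 mM MgCl2, without or with 200 uM FMN. Median apparent KD per design; activation ratio = KD,OFF / KD,ON.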

MS2 coat protein [2] = assay: apparent KD of MS2 coat protein; designed switch direction (-1 OFF switch, 1 ON switch): -1; higher = weaker reporter binding; conditions: Eterna round: R98
Experimental: as §1

Sequence | apparent KD of MS2 coat protein (MS2 coat protein [1]; input ligand: FMN 200 uM) [nM] | apparent KD of MS2 coat protein (MS2 coat protein [1]; input ligand: none) [nM] | apparent KD of MS2 coat protein (MS2 coat protein [2]; input ligand: FMN 200 uM) [nM] | apparent KD of MS2 coat protein (MS2 coat protein [2]; input ligand: none) [nM]
AAAUAAAUUGAAGGAUAUCAGGGUGCACCUCAGUAAAACUGAGGUGCACCCUGAGAAGGUCGAGGAUCACCCGAUCUAAAUAAA [#SharedSequence SLExNG1: 1-2] (puzzle (switch architecture): Small Loop Exclusion NG 1) | 12 | 8.76 | – | –
AUGGUUGUCGUAGGAUAUGUAGGAUAUUCCUACAUGAGGAUCACCCAUGUUCGCAUGGAAGAAGGACAGAAGGACGAUGACCAA [salish99_SSNG2_008 #endbits investigation] (puzzle (switch architecture): Same State NG 2) | 9.65 | 840 | – | –
GUAGCUAUCGGAGGAUAUUCAUACCGGAAACGGACAUGAGGAUCACCCAUGUGGCGAAAGCCAUGGGAGAAGGCCGAUAGCUAC [jl-sng2-3.01 #MUTATE_MAP] (puzzle (switch architecture): Same State NG 2) | 52.2 | 856 | – | –
GCUGCAAAGUAAGGAUAUGCCUAGGAAACCUAGGCAGAAGGUACAUGAGGAUCACCCAUGUUAACUGAAACAGAAUAAAGCAGC [Thrunch 6 - Jieux - Exclusion NG 1] | – | – | 23.2 | 13.5
GGUCGACCUCAAGGAUAUGGACUGCAAAGCAGUCCAGAAGGUGAGGAUCACCCACCUACGGUCAGGAAACUGACCGAUCGACCA [#SharedSequence - ExNG1-2] (puzzle (switch architecture): Exclusion NG 1) | 117 | 19.8 | – | –
AAAGUCGAGAAGAUAAUAAUGAAUACAUGAGGAUCACCCAUGUAGGAUAUGCAGUGGAAUACACUGCAGAAGGACAUACUCGAC [Exclusion NG 3/16-B1] | – | – | 16.4 | 13.6
UAAAUAGAUCCUAGAGGAUCACCCUAGGAUAUCACCGUCGAGGUGCCAUAAUGGCACCUCGACGGUGAGAAGGAGGGAAAUAAA [#SharedSequence - SLExNG3: 2] (puzzle (switch architecture): Small Loop Exclusion NG 3) | 77.8 | 51.2 | – | –
GCACUGGAUGUAGGAUAUCAGGACGAUAAGUCCUGAGAAGGACAUGAGGAUCACCCAUGUAAAUACUCCCAGUGCAAUAAUAUA [Denovo Exng1 21] | – | – | 16.6 | 12.6
GCGUAAAAGAUCCUAUUUAUCUACAUGAGGAUCACCCAUGUGCAGGAUAUGCUAUAUUUAAUAAAGCAGAAGGGCAAUAACCGC [JR_ExcNG3_Sub009] | – | – | 281 | 67.6
UCUUAAAUGAUCCUAUUUACCAACAUGAGGAUCACCCAUGUGCAGGAUAUGCUAAAGAUAGAUAAGCAGAAGGGCAUUAACCGC [JR_ExcNG3_Sub006] | – | – | 244 | 165
AAAUAAAUUCAAGGAUAUGACUCCGAAACGGAGUCAGAAGGUGAGGAUCACCCACCUAUGAUCAGACCUCAGGAAACUGAGGUC [#SharedSequence ExNG1 - 39] (puzzle (switch architecture): Exclusion NG 1) | 6.56 | 6.19 | – | –
GGUUAUAUAACAUGAGGAUCACCCAUGUGAGUGGUCCGAAGCUAGGAUAUCCACACGAGAAGUGUGGAGAAGGAGCAUUCAUUA [AK-NGROCr2-ExNG3-7] | – | – | 159 | 273
UGUGUUAUCGGAGGAUAUCGAUAUCAAACAUGAGGAUCACCCAUGUUGAGGAUCACCCAUGUCCACGAGAAGGCCGGCGUACUG [My 7th design] (puzzle (switch architecture): Same State NG 2) | 12.5 | 12.9 | – | –
